# Assay results reported in the DeepSol protein solubility set.
# Experiment: soluble on expression in E. coli; label from the status in PepcDB or PDB records
row,Sequence,soluble on expression in E. coli
1,MPAPEAPTSTLPPERPLTNLQQQIQQLVSRQPNLTAGLYFFNLDSGASLNVGGDQVFPAASTIKFPILVAFFKAVDEGRVTLQERLTMRPDLIAPEAGTLQYQKPNSQYAALEVAELMITISDNTATNMIIDRLGGAAELNQQFQEWGLENTVINNPLPDMKGTNTTSPRDLATLMLKIGQGEILSPRSRDRLLDIMRRTVTNTLLPAGLGKGATIAHKTGDIGIVVGDAGMVDMPNGQRYVAAMMVKRPYNDPRGSELIRQVSRMVYQAFEKLSPPEQKLISEEDLNSAVDHHHHHH,soluble
2,MLGRTDISTFPRLKLGFWGEVTLTFPAVCDAAEIVLPANWADMSVAANNDNAAINTNNVNFLHISSYIRILVTTIPLRCGKTRDNPH,not soluble
3,MRLFECGTLVPGCAWHTRADDDAEVVRRTVDHMRSAHGETIIRENMIENIKSRIRDEANAA,not soluble
4,MGSDKIHHHHHHMLISANFDGGNIEVINQDDINNVQLAIRPDEGGEFFQWFNFRLQGEVGQRYTLNIINAGQASYTKGWEDYQAAATYDRQQWFRLPTQYQDGKLTIEVELDCEMIQIAYFAPYSYERHQDLLSAVQVHPLVSLEHLGKTLDDRDMTLVKVGDEDEEKAKIWITARQHPGETMAEWLVEGLLNNLLDGDCPTAKALLDKANFYIVPNMNPDGGVRGHLRTNAKGVNLNREWQSPSLEKSPEVYHVVNRMKETGVDLYYDVHGDEGLPYVFLAGCEGVPGYNQKMADLQGDFVKALLMASADFQDEFGYDKDEPGQANLTVASNWVAQTFGCLSNTLEMPFKDNANMPDPMSGWSPERCIYLGEASLLAMLAVVDKLR,not soluble
5,MNVVVERKNVRNVRIQVLADGKVRVVAPPDFDVDSFISKHADWIKKKRAEIESLAEEIKGKERMLLLNGKFYHLVKDSGFEIKEGEEVGVVKYYSLRNLKRNLASILREELKRNVSFYSRLLGINYGRIFIKMQKTKWASCSSKGNLSFNLASLALPEKLREYIVVHELVHLLEPKHSRLFWETVGFYYPEYEEAERELKKYWIFVERNEVWRMLRALK,soluble
6,LKDVLNILLMDEISKLKDFLSNLDYIKPKVNIEEEIIEIRKEDIINALKLFKGKYEIEVDKIPKAVYVYLVKKNILFLYPQRGTLKPQSFLVWNAIKRVL,soluble
7,MVEAIIFDMDGVLFDTEKYYYDRRASFLGQKGISIDHLPPSFFIGGNTKQVWENILRDEYDKWDVSTLQEEYNTYKQNNPLPYKELIFPDVLKVLNEVKSQGLNIGLASSSVKADIFRALEENRLQAFFDIVLSGEEFKESKPNPEIYLTALKQLNVQASRALIIEDSEKGIAAGVAADVEVWAIRDNLFGMDQSAAKGLLDSLTDVLDLIK,not soluble
8,MYDVTIIGAGVSSIFMAYSLAKSNKKVLILDKGKALEDRHCPLDEGKVCNCTTCDKYFGFGGLGKSEGKFNYTNGFGGELEKKVGKEGFLQLMAEVDEILCQFGGSSVSKYSTENSSLTKRAEACGLQMLTTEVRHLGTTLSSNIFQQLYEFLLTKIKIQFHIDVQHILKQEDHFTIDTNQGTVQTKQLVFATGRSGADWLKEMCSSLNISQEQTRVDLGIRVEMKEHQLRSILKDTFETKLSYQGEHFTATTYCMNPKGRIIRKYEEGLVMPDGQNFREQGTGTSNLNFTLFIPSYFPTLKEANVYASSIIKGINQGRDRIVIQRLEDLLKKQPTAENSMEHSRIQPTLQGDYGDLNQEIPQLYIEGLKEFLLRLEQFIQEPIDQHTLLYGIDGKFYAPTIKINNHFETSIHGLFLIGDCSGVTHSLSQAAASGLYVGKYLSDILEHHHHHH,soluble
9,AVNEENIMIPKGVEVYEITGPYFFGIATKFEETMAQLGDRPNVRIIRMRKVPFIDSTGIHNLTTLCEMSQKEKITVILSGVNEKVYKVLEKSGFYELLGKENICPNFKIALDRAEEV,not soluble
10,MIPPLNRYVPALSKNELVKTVTNRDIQFTSFNGKDYPLCFLDEKTPLLFQWFERNPARFGKNDIPIINTEKNPYLNNIIKAATIEKERLIGIFVDGDFFPGQKDAFSKLEYDYENIKVIYRNDIDFSMYDKKLSEIYMENISKQESMPEEKRDCHLLQLLKKELSDIQEGNDSLIKSYLLDKGHGWFDFYRNMAMLKAGQLFLEADKVGCYDLSTNSGCIYLDADMIITEKLGGIYIPDGIAVHVERIDGRASMENGIIAVDRNNHPALLAGLEIMHTKFDADPYSDGVCNGIRKHFNYSLNEDYNSFCDFIEFKHDNIIMNTSQFTQSSWARHVQ,not soluble
11,MSLHMSQTTQTDIITLGAVAAKIPQLIPKVPHLLNGLKQAYLRTPSTPAGLGIAFEKAVKRNPDGMALLFEDERYSYQELNEWANQIAHFYLSLGARKGDVIAVMVENRSELLATIVALAKIGVTAALVNTSQTGKVLTHSINLVQPIALIVGEEVRKCVDEIKQDLNLAQDRFHWFANQATRQDAGSAPRDYINLAEKIDHFPKFNPPTTQTVQGKDGLFYIYTSGTTGLPKAVIFTHSRWTLAYGTYGHVLALDENDVMYVTLPMYHATGIVVCWCGVIAGSATLALRRKYSTSAFWKDVQKFNASAIGYVGELCRYLMDAPPSELDRHHRVTKMIGNGMRPNIWDKFKQRFGVKEILELYASSEGNVGFSNIFNFDNTVGFSPTPYAVIAFDKEKNEPIRDQNGYCQKVKTGEVGLLVGKITRRSPFDGYTDPEKNKSVILKNVFKKGDSYFNTGDLVRDIGFRHAQFVDRLGDTFRWKGENVSTTEVENMLCEYEKIVEAVVYGVEIPNTNGRAGMAAITLNDQAEFNDEDMSAMVNTFKKCLPAYAIPVFLRVQKTVETTGTFKYQKNKLKEQAFDPSKTEERLLVLLPGESAYCEVTSEIFDNIQAYKYREGHHHHHH,soluble
12,MPEQSIEMTPDSSVYKALLESTKAIPWKINWQTMAFEYIGPQIEALLGWPQGSWKSVEDWATRMHPEDQEWVVNFCVKQSECGVDHEADYRALHRDGHYVWIRDVVHVVRDDSGEVEALIGFMFDISERKKTLEHHHHHH,not soluble
13,MGSDKIHHHHHHMRKDGHMQLQTIKVQGFKSIRELEFSLRPLNILIGANGSGKSNILGVFAFLRAMVERHLQMYVARAGGADRILHFGQKNTDSLQIELWFTKKNRRARGNIIANGYRCALVPAVGDRFVFAEERAFFHDRRYEKPVETLLGSGHEESLLPASYGRGIPADVFEAMQSWIVYHFHDTSDSARVKQTGDIDDNYWLRQDASNLTAYLYYIQQQAPDHYRNIVDVIRMVAPFFDDFVLRPSPFNPNKIKLEWRERGSDTYFDAYALSDGTLRFICLATLLLQPARKFPAIILLDEPEMGLHPYAIHVLAELLHSAATQTQVIVATQSVTLVNQFEPEDIVVVERQDGQPVCRRLTMEETETWLDGYGLGDLWEKNILGGRPLP,not soluble
14,GMKTIIRQPQLYRFLKYCNESNLDKTVLDCGAGGDLPPLSIFVEDGYKTYGIEISDLQLKKAENFSRENNFKLNISKGDIRKLPFKDESMSFVYSYGTIFHMRKNDVKEAIDEIKRVLKPGGLACINFLTTKDERYNKGEKIGEGEFLQLERGEKVIHSYVSLEEADKYFKDMKVLFKEDRVVERINDGLKIKQGYVDYIAEKFSKSIL,soluble
15,MNYDAKQPPANLADSIQQKETVQALYDLLDKNMADFDASLAGMDKAETADLKEVSDTREIYDFIRYHYGEFGQREAELLLRMENPLNFIVENWPCHNLETLAMNYLADKTIKEPNKKEMPQSGHDTKDAEKPSILKQIKTNQGQIKANRQETRQQSITAERPRDGEAR,not soluble
